Laboratory results from patent US20080096225.

Biological target: microtubules (Example 3)

B1: Drosophila kinesin heavy chain fragment containing amino acids 5-351 with a C-terminal hexahistidine tag (protein)
chain: REIPAEDSIKVVCRFRPLNDSEEKAGSKFVVKFPNNVEENCISIAGKVYLFDKVFKPNASQEKVYNEAAKSIVTDVLAGYNGTIFAYGQTSSGKTHTMEGVIGDSVKQGIIPRIVNDIFNHIYAMEVNLEFHIKVSYYEIYMDKIRDLLDVSKVNLSVHEDKNRVPYVKGATERFVSSPEDVFEVIEEGKSNRHIAVTNMNEHSSRSHSVFLINVKQENLENQKKLSGKLYLVDLAGSEKVSKTGAEGTVLDEAKNINKSLSALGNVISALADGNKTHIPYRDSKLTRILQESLGGNARTTIVICCSPASFNESETKSTLDFGRRAKTVKNVVCVNEELTAEEWKRRHHHHHH
stimulation of the basal ATPase rate: 1,000-fold stimulation of the basal ATPase rate
